The chains are these.
B1: 5-hydroxytryptamine receptor 2C (Homo sapiens), P28335 (parent)
chain: MVNLRNAVHSFLVHLIGLLVWQSDISVSPVAAIVTDIFNTSDGGRFKFPDGVQNWPALSIVIIIIMTIGGNILVIMAVSMEKKLHNATNYFLMSLAIADMLVGLLVMPLSLLAILYDYVWPLPRYLCPVWISLDVLFSTASIMHLCAISLDRYVAIRNPIEHSRFNSRTKAIMKIAIVWAISIGVSVPIPVIGLRDEEKVFVNNTTCVLNDPNFVLIGSFVAFFIPLTIMVITYCLTIYVLRRQALMLLHGHTEEPPGLSLDFLKCCKRNTAEEENSANPNQDQNARRRKKKERRPRGTMQAINNERKASKVLGIVFFVFLIMWCPFFITNILSVLCEKSCNQKLMEKLLNVFVWIGYVCSGINPLVYTLFNKIYRRAFSNYLRCNYKVEKKPPVRQIPRVAATALSGRELNVNIYRHTNEPVIEKASDNEPGIEMQVENLELPVNPSSVVSERISSV

The variants in the experiment derive from B1. Particulars: with arrb2_mouse Arrb2, Q91YI4.
Sequence of arrb2_mouse Arrb2, Q91YI4 (Q91YI4 whole entry): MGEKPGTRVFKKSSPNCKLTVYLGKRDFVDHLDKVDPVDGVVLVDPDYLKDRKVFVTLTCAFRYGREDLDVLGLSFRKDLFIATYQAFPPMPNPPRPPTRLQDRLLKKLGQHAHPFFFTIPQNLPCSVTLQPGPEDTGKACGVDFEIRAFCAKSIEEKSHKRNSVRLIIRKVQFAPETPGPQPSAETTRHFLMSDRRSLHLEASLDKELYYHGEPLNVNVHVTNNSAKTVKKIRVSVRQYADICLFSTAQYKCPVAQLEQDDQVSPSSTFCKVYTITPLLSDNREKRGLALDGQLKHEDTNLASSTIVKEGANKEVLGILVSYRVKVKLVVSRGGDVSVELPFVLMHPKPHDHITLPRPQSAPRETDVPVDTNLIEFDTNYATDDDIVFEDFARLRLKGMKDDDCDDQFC
As to P159A, the “effect of a mutation on the interaction” value is “decreasing interaction”.

These data come from IntAct's records for PubMed 16319069.
